Legend:
[1] = substrate: O=C1c2c(O)cc(O)cc2O[C@H](c2cc(O)c(O)c(O)c2)[C@H]1O; assay: cells, lysate or membranes; type: biochemical, Angelonia angustifolia; conditions: NADPH, pH 6.5, 25 °C (standard assay), yeast protein fraction, labelled compound
[2] = substrate: O=C1c2c(O)cc(O)cc2O[C@H](c2ccc(O)c(O)c2)[C@H]1O; assay: cells, lysate or membranes; type: biochemical, Angelonia angustifolia; conditions: NADPH, pH 6.5, 25 °C (standard assay), yeast protein fraction, labelled compound

B1: Ang.DFR2 (Angelonia angustifolia) (protein)
chain: METTATQPPPPSSAAAVPATVCVTGAAGFIGSWLVMKLLQRGYNVRATVRDPGNLKKIKHLTQLPKADTNLTLWKADLMEEASFDEAIEGCQGVFHLATPMEFDSKDPENEVIKPTIEGMMSIIRSCAKAKTVEKVIFTTSAGTLNVEEHQKPFYDETSWSDLDFIYSKKMTGWMYFVSKYLAEKQAVEAAKLNNIEFISIIPPVVVGPFINPAFPPSLVTALSPITGNEAHYTIMKQGQFVHLDDICEAHIFLFEHPKADGRYICSSHDATIYDIARLIRDKWPEYNVPMEFKGIDKDIPVVRFSSKKLTSMGFKFKYSLEDMYRGAIETCREKGLLPYSTHNQSNGEKKESTLQSLEKHSDDQEKVLEKRVNGRLDKQFEEQKKELLPIREEKHTNGSLEKCSDDQAKVLLPLPEEKQTNGSLEKHVMINIKTCE
notes: full-length ORF, 437 residues; pYES2.1/V5-His-TOPO in S. cerevisiae INVSc1, protein fraction, not purified
Work on B1 yielded a Km [1] of 6.5 µM and a Km [2] of 11 µM.

From article PMC4169556, “Isolation of Dihydroflavonol 4-Reductase cDNA Clones from Angelonia x angustifolia and Heterologous Expression as GST Fusion Protein in Escherichia coli” (PLoS ONE, 2014)
